{
  "source": "patent US11859229B2",
  "about": "“Polyvinyl alcohol-degrading enzyme and process for producing the same” (Hayashibara Co., Ltd., priority 2017, dated 2024)",
  "type_in_all_cases": "biochemical",
  "key": {"[1]": {"assay": "Thermal stability and pH stability (residual PVA-oxidizing activity)", "experimental": "To 0.5 mL of a substrate solution prepared by dissolving PVA (Reagent grade polyvinyl alcohol, polymerization degree: 2,000, Nacalai Tesque Inc., Kyoto, Japan) into 100 mM sodium phosphate buffer (pH 7.0) to give a concentration of 2% (w/v), 15 µL of 2% (w/v) of sodium azide solution was added, and then 0.5 mL of an enzyme solution is further added and reacted with shaking at 27° C. for 60 min. After the 60 min-reaction, the reaction was stopped by mixing 0.32 mL of the reaction mixture to 0.8 mL of a titanium reagent, and the yellow color, produced by reacting hydrogen peroxide formed by the enzyme reaction and the titanium reagent, was measured by measuring the absorbance at 410 nm (A410) as an index. Separately, the enzyme solution was added to the substrate solution, and the resulting mixture is immediately mixed with the titanium reagent. The resulting mixture was similarly measured its color and the value was used as the value at the reaction zero minutes. Then, the amount of the formed hydrogen peroxide is determined and the PVA-oxidizing activity is calculated based on the following formula. It is known that the absorbance at 410 nm (A410) increases by “1” when 3.65 […]mole/mL of hydrogen peroxide is formed. […]\nIn the two purified preparations of the PVA-degrading enzyme, PVA-A was used for investigating thermal stability and pH stability using PVA-oxidizing activity as an index according to the assay method. Thermal stability was determined by the steps of incubating the enzyme solution (in 10 mM phosphate buffer, pH 7.0) at various temperature for 60 min, cooling in water, and then measuring the residual enzyme activity. pH Stability was determined by the steps of incubating the enzyme solution in 100 mM buffer with different pH at 4° C. for 24 hours, adjusting pH to 7.0, and then measuring the residual enzyme activity. […] In FIG. 6, symbols, “●”, “▪”, “▴” and “♦”, mean values measured by using acetate buffer, phosphate buffer, glycine-NaOH buffer, and potassium chloride-NaOH buffer, respectively, for pH control."}, "[2]": {"assay": "Detection of β-diketone hydrolyzing activity (acetone from 2,4-pentanedione by gas chromatography)", "design": "key: Yes: Acetone, a product by the hydrolysis, was qualitatively detected", "conditions": "qualitative", "description": "As shown in the above (2), the PVA-degrading enzyme of the present invention has an activity of hydrolyzing […]-diketone, i.e., […]-diketone-hydrolyzing activity. Enzymes having β-diketone-hydrolyzing activity can hydrolyze an oxidized PVA having a […]-diketone structure (i.e., oxidized PVA). Beta-diketone-hydrolyzing activity can be detected by examining the activity of hydrolyzing 2, 4-pentanedione which is a model compound of oxidized PVA having a […]-diketone structure. Acetone and acetic acid are formed when a PVA-degrading enzyme hydrolyzes 2,4-pentanedione. Therefore, for example, […]-diketone-hydrolyzing activity can be detected by the following method using 2,4-pentanedione as a substrate.\n2,4-Pentanedione (Reagent grade, commercialized by Wako Pure Chemical Industries Co., Ltd., Osaka, Japan) was added to 50 mM sodium phosphate buffer (pH 7.0) to give a concentration of 0.2% (w/v) to make into a substrate solution. To 1 mL of the substrate solution, 0.2 mL of enzyme solution and 0.8 mL of 50 mM sodium phosphate buffer (pH 7.0) were added and then the mixture was shaken at 27° C. for 3 hours for the reaction. After the reaction, 2 mL of the reaction mixture was withdrawn and put in a glass vial, and then the vial was sealed and heated at 95° C. for 40 min. […]"}, "[3]": {"assay": "Optimum temperature and optimum pH of PVA-oxidizing activity", "experimental": "To 0.5 mL of a substrate solution prepared by dissolving PVA (Reagent grade polyvinyl alcohol, polymerization degree: 2,000, Nacalai Tesque Inc., Kyoto, Japan) into 100 mM sodium phosphate buffer (pH 7.0) to give a concentration of 2% (w/v), 15 µL of 2% (w/v) of sodium azide solution was added, and then 0.5 mL of an enzyme solution is further added and reacted with shaking at 27° C. for 60 min. After the 60 min-reaction, the reaction was stopped by mixing 0.32 mL of the reaction mixture to 0.8 mL of a titanium reagent, and the yellow color, produced by reacting hydrogen peroxide formed by the enzyme reaction and the titanium reagent, was measured by measuring the absorbance at 410 nm (A410) as an index. Separately, the enzyme solution was added to the substrate solution, and the resulting mixture is immediately mixed with the titanium reagent. The resulting mixture was similarly measured its color and the value was used as the value at the reaction zero minutes. Then, the amount of the formed hydrogen peroxide is determined and the PVA-oxidizing activity is calculated based on the following formula. It is known that the absorbance at 410 nm (A410) increases by “1” when 3.65 […]mole/mL of hydrogen peroxide is formed. Therefore, in the following Formula 1, the coefficient of “3.65” has been multiplied. […]"}, "[4]": {"assay": "Assay for PVA-oxidizing activity (hydrogen peroxide formation, titanium reagent, A410)", "experimental": "As shown in the above (1), the PVA-degrading enzyme of the present invention has an PVA-oxidizing activity, i.e., an activity of catalyzing the reaction of oxidizing PVA as substrate and forming hydrogen peroxide. For example, the PVA-oxidizing activity can be measured by the following method.\nTo 0.5 mL of a substrate solution prepared by dissolving PVA (Reagent grade polyvinyl alcohol, polymerization degree: 2,000, Nacalai Tesque Inc., Kyoto, Japan) into 100 mM sodium phosphate buffer (pH 7.0) to give a concentration of 2% (w/v), 15 µL of 2% (w/v) of sodium azide solution was added, and then 0.5 mL of an enzyme solution is further added and reacted with shaking at 27° C. for 60 min. After the 60 min-reaction, the reaction was stopped by mixing 0.32 mL of the reaction mixture to 0.8 mL of a titanium reagent, and the yellow color, produced by reacting hydrogen peroxide formed by the enzyme reaction and the titanium reagent, was measured by measuring the absorbance at 410 nm (A410) as an index. Separately, the enzyme solution was added to the substrate solution, and the resulting mixture is immediately mixed with the titanium reagent. The resulting mixture was similarly measured its color and the value was used as the value at the reaction zero minutes. Then, the amount of the formed hydrogen peroxide is determined and the PVA-oxidizing activity is calculated based on the following formula. It is known that the absorbance at 410 nm (A410) increases by “1” when 3.65 […]mole/mL of hydrogen peroxide is formed. Therefore, in the following Formula 1, the coefficient of “3.65” has been multiplied. One unit of the PVA-oxidizing activity is defined as the amount of enzyme that forms 1 […]mole of hydrogen peroxide per min under the above conditions. Titanium reagent is prepared by diluting 5% titanium sulfate (IV) solution, commercialized by Nacalai Tesque Inc., Kyoto, Japan, 25-fold with 10% (w/w) sulfuric acid."}, "[5]": {"assay": "PVA-degrading (viscosity-reducing) activity", "conditions": "at each purification step", "experimental": "While, activity as a PVA-degrading enzyme can be measured, for example, by measuring the viscosity reduction of a PVA solution, caused by the degradation of PVA, as an index using the following method.\nTo 0.5 mL of a substrate solution prepared by dissolving PVA (Reagent grade polyvinyl alcohol, polymerization degree: 2,000, Nacalai Tesque Inc., Kyoto, Japan) into 100 mM sodium phosphate buffer (pH 7.0) to give a concentration of 2% (w/v), 15 µL of 2% (w/v) of sodium azide solution was added, and then 0.5 mL of an enzyme solution is further added and reacted with shaking at 27° C. for 60 min. After the reaction, 0.6 mL of the reaction mixture was withdrawn and its viscosity was measured using a Cone plate-type viscometer (“DV-II+Pro”, Brookfield Co., Ltd.) at 30° C. Separately, the enzyme solution was added to the substrate solution and the viscosity was measured immediately, and the viscosity was used as that at zero-min reaction. The PVA-degrading activity was calculated based on the following formula. One unit of the PVA-degrading activity was defined as the amount of enzyme that causes a 10%-reduction of relative viscosity per min under the above conditions. […]"}},
  "data": [
    {"molecule": "PVA-B: purified PVA-degrading hybrid enzyme from Pseudomonas sp. VT1B strain, amino acid sequence of SEQ ID NO: 3 (protein, listed as Pseudomonas sp.) AENWPMFGKNYENSRATADTQLSTSNISSLNVVRRTADGGITGTPTVVDGVAYYSDFSGYVKAVRVNDGAVLWRVRPQTTMLSPSPFVTDDTVYVAGNNSYVYALNRLDGAVRWTTQIETSPNSRISSSPIVVDNILMIGTGSYQVFIPATPMFRGRVVFLNATTGAILPYSTNMCPEGLCGGGISVWSTAAVDVSTRTGYIGTGQAYRDPAGPYSDSLVAFDIDTGAIRWSQQFLANDVYQLGGVLRYDYDVGAAPNLFVADERRMVGVGGKDGTYRAFDRDTGAPIWTTPVGRGSPIGGVMQSTAYGDGRIYVTSNTSTIGGGRNDPVPATAEALALDAATGTPVWIRQLDAGGFGGVAYANGLMYASVWDGRMRVFNAANGNIVKEVQVSPSRGVYVAAPTDGFPNGSAGGPIVYGNRVLMGYGWTWVLNISGGLATMELVSGGGETQTVTLASNQDTYVQSGTPTTSYNANEFLLARLADAEGLTRASFLQFPLTAIPAGTITSARLRLYGRHDAPTGTGQPVSVWPGTFTTPWNGADVIYNNSDLVTGVNFYLTSPIANALIGITPQYYEWDVTGYVDSRRALGHATFGVAVDYGHLYRVTFNSADNAANRPELVVAVSTGGTSEPDPELPPGSMEGSCPAGFTPRAGVNQGFIHNGVARGFVLNVPANVSTPRPMFVSLTGSVESTNENLGPRGGAGALTNDGFLVIGPVRRCAGQDPNGSGTSVGGGTCNQPGTGGWNWNPWNEGRAFGAAGDQWKTAEGPDSEFLESVARCVAKRFPVDSKRMYLGGISSGGTLTNRALLFNSDFWAGGLPISGEWYVTRDDGTAYPGPDEFAARRQAVIDDPTKIFQGRVGPLPLRSTLDPMIVITVWGGTNDVWSCDGVTLCADYRPSTQVASNYFSAQPNVVHVACSSSHGHQWPTINRAAFNTWAATTLASHPKGTPASAFVLPPPPAGYTCRIGPYIDHYERACSVDGDGDIDRNDIAVITAARNQPASGPTDLRDVDRSGVIDVNDARACTLRCDRPNCAVQ", "values": [
      {"measurement": "Thermal stability of PVA-oxidizing activity", "setting": "[1]; 10 mM phosphate buffer, pH 7.0, 60 min", "value": "almost the same"},
      {"measurement": "pH stability of PVA-oxidizing activity", "setting": "[1]; 100 mM buffer, 4° C. for 24 hours", "value": "almost the same"},
      {"measurement": "2,4-Pentanedione-Degrading Activity", "setting": "[2]", "value": "Yes*"},
      {"measurement": "Optimum pH of PVA-oxidizing activity", "setting": "[3]; 60 min-reaction at 27° C.", "value": "almost the same"},
      {"measurement": "Optimum temperature of PVA-oxidizing activity", "setting": "[3]; 60 min-reaction at pH 7.0", "value": "almost the same"},
      {"measurement": "Specific activity", "setting": "[4]; PVA-oxidizing activity per mg protein at each purification step", "value": 1.9, "unit": "U/mg"},
      {"measurement": "Total Activity (PVA-oxidizing activity)", "setting": "[4]; at each purification step, from 4 L culture supernatant", "value": 3.3, "unit": "U"},
      {"measurement": "Total PVA-Degrading Activity (Viscosity-reducing Activity)", "setting": "[5]", "value": 8.4, "unit": "U"}
    ]}
  ]
}
